# Results taken from US20040210042A1 (published 2004).
# Ends that are not written are not given here.
# T1: polypeptide translated from the polynucleotide of SEQ ID NO: 62 (human, UniProt Q05513 356-592)
# T1 construct: retested as a pGBKT7 fusion in yeast AH109
# T1 sequence: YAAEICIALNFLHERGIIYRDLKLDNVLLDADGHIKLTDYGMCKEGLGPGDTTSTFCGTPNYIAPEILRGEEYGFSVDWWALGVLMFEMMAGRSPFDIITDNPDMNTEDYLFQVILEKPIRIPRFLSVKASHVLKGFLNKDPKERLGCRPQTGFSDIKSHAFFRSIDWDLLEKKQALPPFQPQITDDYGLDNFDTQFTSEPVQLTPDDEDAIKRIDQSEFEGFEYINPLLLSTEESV
# B1: cytoplasmic domain of RAGE (receptor for advanced glycation endproduct) (receptor, UniProt Q15109 364-404, looked up)
# chain: QRRQRRGEERKAPENQEEEEERAELNQSEEPEAGESSTGGP
# modifications: not fully specified
# notes: domain: cytoplasmic domain; also called RAGECD; RAGECD fragments
# Target: T1, polypeptide translated from the …
# Assay: yeast two-hybrid screen, LexA system, histidine and LacZ reporters, human kidney library
# Excerpt: Then, the Human kidney […] LexA library (manufactured by Clontech Co., Ltd.) was introduced to the above-described strain and 10⁶ colonies were screened. At the first screening, a histidine-deficient medium was used and about 200 colonies were selected based on the expression of a histidine gene, which was a reporter of the interaction. At the second screening, 31 colonies were obtained based on the expression of LacZ, which was another reporter of the interaction. Finally, 31 clones each of which had been confirmed to surely have two kinds of reporter activities were selected. The above procedures were carried out on the basis of protocols of the yeast two-hybrid method from Invitrogen Co., Ltd. and Clontech Co., Ltd.
# The library vectors were recovered from the yeast colonies selected as described above, and the nucleotide sequences were analyzed using the DNA sequencer (the same as above). The nucleotide sequences are shown in SEQ ID NOS: 33 to 63 in the Sequence Listing.
binder,measurement,value
B1,binding result,binds
